Source: US20240010735A1 (EISAI R AND D MANAGEMENT, published 2024)

Key:
Experiment in all cases: ELISA: Fc-His proteins (1 nM) captured on anti-6-His antibody, antibody B 10 µg/mL with human IgG 100 µg/mL, HRP anti-human kappa light chain antibody, OD450 as % of mouse EphA4-Fc-His
[1] = target: T1, mouse EphA2 extracellular region-Fc-His protein (mouse, UniProt Q03145 26-538)
T1 construct: extracellular domain; Cloned into a pcDNA 3.1 vector separately from the other mouse Eph receptors; not shown: Fc; histidine tag

[2] = target: T2, mouse EphA7 extracellular region-Fc-His protein (mouse; human, UniProt Q61772 28-555)
T2 construct: extracellular domain; not shown: Fc region of human IgG1; histidine tag
T2 sequence (looked up): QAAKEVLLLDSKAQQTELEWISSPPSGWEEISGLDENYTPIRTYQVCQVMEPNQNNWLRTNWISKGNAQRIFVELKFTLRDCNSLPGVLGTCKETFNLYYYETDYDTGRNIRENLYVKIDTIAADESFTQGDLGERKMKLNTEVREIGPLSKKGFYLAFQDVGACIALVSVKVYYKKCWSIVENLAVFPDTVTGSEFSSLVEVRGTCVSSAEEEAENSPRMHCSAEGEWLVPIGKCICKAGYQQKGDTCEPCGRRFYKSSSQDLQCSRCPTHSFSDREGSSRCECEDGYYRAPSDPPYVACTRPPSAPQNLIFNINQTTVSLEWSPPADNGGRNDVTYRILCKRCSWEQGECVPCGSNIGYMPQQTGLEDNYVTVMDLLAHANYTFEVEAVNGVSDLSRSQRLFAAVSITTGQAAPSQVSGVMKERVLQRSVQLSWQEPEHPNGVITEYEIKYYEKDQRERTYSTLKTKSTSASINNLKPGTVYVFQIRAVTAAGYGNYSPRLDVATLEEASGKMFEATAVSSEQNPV

[3] = target: T3, mouse EphB2 extracellular region-Fc-His protein (mouse; human, UniProt P54763 19-543)
T3 construct: extracellular domain; not shown: Fc region of human IgG1; histidine tag
T3 sequence (looked up): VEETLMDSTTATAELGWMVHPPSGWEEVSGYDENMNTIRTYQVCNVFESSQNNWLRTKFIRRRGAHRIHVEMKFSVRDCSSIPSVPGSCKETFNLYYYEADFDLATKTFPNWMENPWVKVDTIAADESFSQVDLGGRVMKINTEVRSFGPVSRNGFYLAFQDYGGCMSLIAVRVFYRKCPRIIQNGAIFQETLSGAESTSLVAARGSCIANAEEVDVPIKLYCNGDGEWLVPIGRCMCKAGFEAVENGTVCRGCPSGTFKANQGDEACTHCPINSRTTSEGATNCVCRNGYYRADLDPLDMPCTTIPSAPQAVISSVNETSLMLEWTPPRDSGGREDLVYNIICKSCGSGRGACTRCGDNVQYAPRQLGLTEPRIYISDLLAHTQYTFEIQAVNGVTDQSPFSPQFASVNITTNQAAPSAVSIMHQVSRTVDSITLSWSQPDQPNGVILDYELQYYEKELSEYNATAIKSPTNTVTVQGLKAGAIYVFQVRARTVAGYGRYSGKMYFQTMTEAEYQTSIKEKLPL

[4] = target: T4, mouse EphB3 extracellular region-Fc-His protein (mouse; human, UniProt P54754 30-554)
T4 construct: extracellular domain; not shown: Fc region of human IgG1; histidine tag
T4 sequence (looked up): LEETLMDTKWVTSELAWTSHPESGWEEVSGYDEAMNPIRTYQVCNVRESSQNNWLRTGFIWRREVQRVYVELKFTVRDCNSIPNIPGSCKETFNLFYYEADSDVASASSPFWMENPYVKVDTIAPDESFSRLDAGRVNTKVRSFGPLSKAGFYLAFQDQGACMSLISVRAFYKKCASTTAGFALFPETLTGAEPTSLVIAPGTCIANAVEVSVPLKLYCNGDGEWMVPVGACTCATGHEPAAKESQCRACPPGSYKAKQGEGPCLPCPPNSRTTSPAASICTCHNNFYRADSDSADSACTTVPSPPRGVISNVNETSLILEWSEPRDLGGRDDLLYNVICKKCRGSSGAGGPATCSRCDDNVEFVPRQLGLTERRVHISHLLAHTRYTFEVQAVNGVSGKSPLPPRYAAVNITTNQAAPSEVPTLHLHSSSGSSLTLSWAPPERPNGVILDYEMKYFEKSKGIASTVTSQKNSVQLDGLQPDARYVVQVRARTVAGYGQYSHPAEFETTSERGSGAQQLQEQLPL

Measured: binding result

T1 sequence (Q03145 26-538): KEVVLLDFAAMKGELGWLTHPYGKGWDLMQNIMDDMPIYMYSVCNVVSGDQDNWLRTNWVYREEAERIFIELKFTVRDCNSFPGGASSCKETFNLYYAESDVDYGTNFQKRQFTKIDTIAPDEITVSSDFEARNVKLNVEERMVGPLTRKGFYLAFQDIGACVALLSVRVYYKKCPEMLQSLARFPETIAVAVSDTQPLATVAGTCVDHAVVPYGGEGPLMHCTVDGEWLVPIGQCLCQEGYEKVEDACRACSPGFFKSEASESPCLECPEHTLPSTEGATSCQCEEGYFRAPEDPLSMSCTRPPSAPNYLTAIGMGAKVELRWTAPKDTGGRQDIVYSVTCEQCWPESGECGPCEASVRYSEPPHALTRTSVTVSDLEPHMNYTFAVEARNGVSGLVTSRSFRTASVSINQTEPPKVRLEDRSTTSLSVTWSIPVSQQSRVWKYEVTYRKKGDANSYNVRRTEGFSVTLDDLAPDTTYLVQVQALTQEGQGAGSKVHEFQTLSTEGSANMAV

B1: humanized anti-EphA4 monoclonal antibody (antibody B) (antibody, human IgG2, V domains shown)
VH: QVQLVESGGGVVQPGRSLRLSCAVSGFSLTRFGVHWVRQAPGKGLEWVAVIWRGGSTDYNAAFMSRLTISKDNSKNTVYLQMNSLRAEDTAVYYCAKESLFGVYYDYGYYSMDYWGQGTTVTVSS
VL: DIQMTQSPSSLSASVGDRVTITCRASQEISGYLSWLQQKPGKAPKRLIYAASTLDSGVPSRFSGSRSGTEYTLTISSLQPEDFATYYCLQYASYPLTFGGGTKVEIKR
notes: expressed in Expi293F cells; also called humanized antibody of antibody A; HK2-42 / L1-8
no binding (tested: 10 µg/mL): [1] | [2] | [3] | [4]
